These results are taken from patent publication US20040132096A1 (GlaxoSmithKline, published 2004).

B2: Asp2/BACE-myc (enzyme, not shown: small tags and cut ends)
chain: ETDEEPEEPGRRGSFVEMVDNLRGKSGQGYYVEMTVGSPPQTLNILVDTGSSNFAVGAAPHPFLHRYYQRQLSSTYRDLRKGVYVPYTQGKWEGELGTDLVSIPHGPNVTVRANIAAITESDKFFINGSNWEGILGLAYAEIARPDDSLEPFFDSLVKQTHVPNLFSLQLCGAGFPLNQSEVLASVGGSMIIGGIDHSLYTGSLWYTPIRREWYYEVIIVRVEINGQDLKMDCKEYNYDKSIVDSGTTNLRLPKKVFEAAVKSIKAASSTEKFPDGFWLGEQLVCWQAGTTPWNIFPVISLYLMGEVTNQSFRITILPQQYLRPVEDVATSQDDCYKFAISQSSTGTVMGAVIMEGFYVVFDRARKRIGFAVSACHVHDEFRTAAVEGPFVTLDMEDCGYNIPQTDESTLMTIAYVMAAICALFMLPLCLMVCQWRCLRCLRQQHDDFADDISLLK
notes: It was transiently transfected into SHSY5Y-APPswe cells; also called BACE/Asp2

The target of assay [1] is B2. Description: co-localisation by immunofluorescence in double-transfected SHSY5Y-APPswe cells. The text has this: (§1) cDNAs encoding Nogo isoforms were transfected into cultured SHSY5Y-APPswe cells and expressed proteins detected in fixed cells with immunohistochemistry. Asp2 was detected using a c-terminal myc epitope (FIG. 3A left panel) while the Nogo-A (FIG. 3A right panel) and B isoforms were detected using isoform specific rabbit polyclonal antibodies (designated 67 and 66 respectively or monoclonal Anti-Nogo-A 6D5 as indicated in the figure legends). These experiments confirm that it is possible to overexpress these proteins in this cellular background and can be used as the basis of an assay for modulators of Nogo influenced APP processing.

Assay [2] deals with T1, Nogo-A (Homo sapiens (Human), UniProt Q9NQC3 1-1192).
T1 sequence: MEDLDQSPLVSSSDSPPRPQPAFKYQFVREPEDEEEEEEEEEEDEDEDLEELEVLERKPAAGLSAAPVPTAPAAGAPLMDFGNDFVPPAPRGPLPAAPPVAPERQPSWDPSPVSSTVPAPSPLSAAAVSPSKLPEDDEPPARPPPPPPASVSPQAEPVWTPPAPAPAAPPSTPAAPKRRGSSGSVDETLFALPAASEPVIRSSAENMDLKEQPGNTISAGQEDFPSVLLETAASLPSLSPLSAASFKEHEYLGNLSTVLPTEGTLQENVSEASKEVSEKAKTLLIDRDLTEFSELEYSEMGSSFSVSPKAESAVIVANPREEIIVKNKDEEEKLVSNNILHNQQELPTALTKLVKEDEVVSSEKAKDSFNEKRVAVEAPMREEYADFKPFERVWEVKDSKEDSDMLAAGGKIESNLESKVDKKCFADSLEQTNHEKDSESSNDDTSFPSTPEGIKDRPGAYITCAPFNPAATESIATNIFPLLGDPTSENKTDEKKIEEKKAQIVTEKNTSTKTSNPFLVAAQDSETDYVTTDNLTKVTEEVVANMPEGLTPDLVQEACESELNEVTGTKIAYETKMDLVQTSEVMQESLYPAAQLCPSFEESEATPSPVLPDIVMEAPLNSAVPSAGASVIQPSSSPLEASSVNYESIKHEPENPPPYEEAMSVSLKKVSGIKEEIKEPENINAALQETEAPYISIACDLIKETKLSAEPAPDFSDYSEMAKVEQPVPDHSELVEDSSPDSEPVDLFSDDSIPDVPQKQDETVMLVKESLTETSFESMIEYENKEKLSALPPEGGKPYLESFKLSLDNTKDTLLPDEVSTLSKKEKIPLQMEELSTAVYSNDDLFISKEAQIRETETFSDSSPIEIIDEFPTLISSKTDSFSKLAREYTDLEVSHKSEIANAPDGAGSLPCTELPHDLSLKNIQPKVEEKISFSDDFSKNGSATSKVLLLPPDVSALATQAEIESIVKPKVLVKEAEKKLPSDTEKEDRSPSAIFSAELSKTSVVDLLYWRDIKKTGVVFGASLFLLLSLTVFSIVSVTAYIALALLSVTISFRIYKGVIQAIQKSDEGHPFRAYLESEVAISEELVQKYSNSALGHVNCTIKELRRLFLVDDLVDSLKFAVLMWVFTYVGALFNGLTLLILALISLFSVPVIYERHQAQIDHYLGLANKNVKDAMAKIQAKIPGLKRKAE
The assay is described as above.
From the text: as §1

B1: NogoB (ASY) (other)
chain: MEDLDQSPLVSSSDSPPRPQPAFKYQFVREPEDEEEEEEEEEEDEDEDLEELEVLERKPAAGLSAAPVPTAPAAGAPLMDFGNDFVPPAPRGPLPAAPPVAPERQPCWDPSPVSSTVPAPSPLSAAAVSPSKLPQDDEPPARPPPPPPASVSPQAEPVWTPPAPAPAAPPSTPAAPKRRGSSGSVVVDLLYWRDIKKTGVVFGASLFLLLSLTVFSIVSVTAYIALALLSVTISFRIYKGVIQAIQKSDEGHPFRAYLESEVAISEELVQKYSNSALGHVNCTIKELRRLFLVDDLVDSLKFAVLMWVFTYVGALFNGLTLLILALISLFSVPVIYERHQAQIDHYLGLANKNVKDAMAKIQAKIPGLKRKAE
As to B1, the binding result in assay [1] is “binds”.
Consider B2, for which, in assay [2], the binding result was “binds”.
